Experimental data reported in patent US20030026781A1, “Compositions and methods for regulating endogenous inhibitor of ATP synthase, including treatment for diabetes” (MitoKor, priority 1999, published 2003).

Biological target: mitochondrial ATP synthase (ETC Complex V) ATPase in rat liver submitochondrial particles (SMP) (rat) (UniProt P15999)
Experiment: cell-based or functional assay

For rat IF1 (from UniProt Q03344 26-107), the IC50 at pH 6.5, inhibition of oligomycin-sensitive ATPase in rat liver SMP was 190 nM, the IC50 at pH 7.25, inhibition of oligomycin-sensitive ATPase in rat liver SMP was 420 nM and the IC50 at pH 8, inhibition of oligomycin-sensitive ATPase in rat liver SMP was over 800 nM.
